Data as given in patent US20260176342A1 (CITRYLL B V, published 2026).
Residue numbers refer to the chain shown, from its start. Square brackets hold non-standard residues; d marks the D form. Ends that are not written are not given here. Cit = NC(=O)NCCC[C@H](N)C(=O)O

T1: citrullinated histone 2A-derived peptide (SEQ ID NO: 18), C-terminal biotin (human)
T1 construct: Captured by its biotin on NeutrAvidin plates (ELISA) or streptavidin biosensors (Octet); also called histone-derived peptide; citrullinated H2A-derived peptide
T1 peptide: SG[Cit]GKQGGKARA-biotin

T2: citrullinated histone 4-derived peptide (SEQ ID NO: 20), C-terminal biotin (human, citrulline at position 3; biotin at the C-terminus)
T2 construct: Immobilized on streptavidin biosensors (Octet RED96); also called H4-derived peptide; N-terminal histone 4 peptide
T2 peptide: SGXGKGGKGLGK

B1: hMQ22.101j/LC42 (antibody, V domains shown)
VH: QVQLVQSGAEVKKPGASVKVSCKASGYTFTNYGMHWVRQAPGQGLEWMGWINTYSGEATYAQKFQGRVTMTRDTSISTAYMELSRLRSDDTAVYYCLRGYTYQSFDEGGDYWGQGTLVTVSS
VL: DVVMTQSPLSLPVTLGQPASISCRSSQSLLDNDGKTYLNWFQQRPGQSPRRLIYLVSKLDSGVPDRFSGSGSGTDFTLKISRVEAEDVGVYYCWQGTHFPYTFGQGTKLEIK
notes: also called isomerization mutant; heavy chain hVH22.101j with light chain hVL22.101LC42
B2: hMQ22.101j/LC41 (antibody, V domains shown)
VH: B1 VH
VL: B1 VL with N32A
notes: also called isomerization mutant; heavy chain hVH22.101j with light chain hVL22.101LC41
B3: hMQ22.101HC7/LC42 (antibody, V domains shown)
VH: B1 VH with A16S, M70I, R72A, T74E, I76T, R85S, D89E
VL: B1 VL
notes: also called isomerization mutant; heavy chain hVH22.101HC7 with light chain hVL22.101LC42
B4: hMQ22.101HC8/LC27 (antibody, V domains shown)
VH: B1 VH with A16S, A61V, Q62D, K63D, M70I, R72A, T74E, I76T, R85S, D89E
VL: B1 VL with N32T, G34A
notes: also called isomerization mutant; heavy chain hVH22.101HC8 with light chain hVL22.101LC27
B5: hMQ22.101HC9/LC17 (antibody, V domains shown)
VH: B1 VH with Q1R, V2I, A61V, Q62D, K63D
VL: B1 VL with N32T
notes: also called isomerization mutant; heavy chain hVH22.101HC9 with light chain hVL22.101LC17
B6: hMQ22.101HC7/LC27 (antibody, V domains shown)
VH: B1 VH with A16S, M70I, R72A, T74E, I76T, R85S, D89E
VL: B1 VL with N32T, G34A
notes: also called isomerization mutant; heavy chain hVH22.101HC7 with light chain hVL22.101LC27
B7: hMQ22.101j/LC21 (antibody, V domains shown)
VH: B1 VH
VL: B1 VL with N32S, G34A
notes: also called isomerization mutant; heavy chain hVH22.101j with light chain hVL22.101LC21
B8: hMQ22.101HC9/LC42 (antibody, V domains shown)
VH: B1 VH with Q1R, V2I, A61V, Q62D, K63D
VL: B1 VL
notes: also called isomerization mutant; heavy chain hVH22.101HC9 with light chain hVL22.101LC42
B9: hMQ22.101HC8/LC42 (antibody, V domains shown)
VH: B1 VH with A16S, A61V, Q62D, K63D, M70I, R72A, T74E, I76T, R85S, D89E
VL: B1 VL
notes: also called isomerization mutant; heavy chain hVH22.101HC8 with light chain hVL22.101LC42
B10: hMQ22.101f/g (antibody, V domains shown)
VH: B1 VH with Q1R, V2I
VL: B1 VL with N32S
notes: Full-size humanized antibody; also called humanized therapeutic antibody with heavy chain hVH22.101f and light chain hVL22.101g; tACPA
B11: hMQ22.101f/LC27 (antibody, V domains shown)
VH: B1 VH with Q1R, V2I
VL: B1 VL with N32T, G34A
notes: also called isomerization mutant; heavy chain hVH22.101f with light chain hVL22.101LC27
B12: hMQ22.101f/LC17 (antibody, V domains shown)
VH: B1 VH with Q1R, V2I
VL: B1 VL with N32T
notes: also called isomerization mutant; heavy chain hVH22.101f with light chain hVL22.101LC17
B13: hMQ22.101f/LC41 (antibody, V domains shown)
VH: B1 VH with Q1R, V2I
VL: B1 VL with N32A
notes: also called development candidate; isomerization mutant
B14: hMQ22.101f/LC42 (antibody, V domains shown)
VH: B1 VH with Q1R, V2I
VL: B1 VL
notes: also called isomerization mutant; heavy chain hVH22.101f with light chain hVL22.101LC42

Target: T1, citrullinated histone 2A-derived …
Test: Octet RED96 off-rate screen, biotinylated peptide on streptavidin biosensors, antibody 72 nM, 30 C
Experimental: (§1) Off-rate screening of the isomerization-mutated antibodies was performed on an Octet® RED96 (biomolecule detection system) instrument (Pall ForteBio). All measurements were performed at 30° C. Streptavidin (SA) biosensors were first washed for 50 sec with PBS. 1 μg/ml N-terminal histone 2A (SEQ ID NO: 18) and histone 4 (SEQ ID NO: 20) peptides, containing both a citrulline at position 3 and a biotin at the C-terminus, were immobilized on SA biosensors for 200 sec, washed with PBS for 50 sec and excess reactive streptavidin molecules blocked with EZ-Link™ biocytin for 200 sec. After two additional 50 sec wash steps in PBS, antibodies at a concentration of 72 nM diluted in PBS were allowed to bind to the biosensors for 200 sec. Sensors were subsequently placed in PBS for 4000 sec in order to measure their dissociation rates.
(§2) Background signals generated with non-coated biosensors, which have been exposed to the various antibodies as well as signals from coated biosensors that have not been exposed to the various antibodies, have been subtracted before dissociation curves for each antibody were plotted. Both histone 2A and histone 4 dissociation rates constants (kdis×E-07 (1/s)) for each antibody were calculated applying a 1:1 interaction model (fitting local, full) using ForteBio data analysis software 8.1.

Row | binding result | Binder
1 | binds | B1
2 | binds | B2
3 | binds | B3
4 | binds | B4
5 | binds | B5
6 | binds | B6
7 | binds | B7
8 | binds | B8
9 | binds | B9

Target: T2, citrullinated histone 4-derived peptide …
Test: as above
Experimental: as §1, §2

Row | binding result | Binder
10 | binds | B10
11 | binds | B1
12 | binds | B2
13 | binds | B3
14 | binds | B4
15 | binds | B5
16 | binds | B6
17 | binds | B7
18 | binds | B8
19 | binds | B9

Target: T1, citrullinated histone 2A-derived …
Test: CMC ELISA, biotinylated peptide on NeutrAvidin-coated plate, anti-human-HRP, OD 450 nm, interpolated on a calibration curve
Experimental: hMQ22.101j/e samples from week 0, 2, 4, 6 and 8, and hMQ22.101f/g samples from week 0, 3 and 6 were subjected to an in house-validated CMC ELISA. 96-well ELISA plates were coated with NeutrAvidin™ ([…]) by overnight incubation at 4° C. Wells were washed 5 times with PBS-Tween® (polysorbate) 20 (PBS-T) and blocked by a 2 hour incubation with PBS-T+1% Bovine serum albumin (BSA) at room temperature (RT). After 5 more washes with PBS-T, wells were incubated for 1 hour at RT with a histone-derived peptide (SEQ ID NO 18: SGXGKQGGKARA), containing a citrulline (X) at position 3 and a C-terminal biotin (40 ng/well) in PBS-T+0.2% BSA. After another 5 washes with PBS-T, a calibration curve made from a reference lot of hMQ22.101j/e or hMQ22.101f/g by adding to the wells starting at […] and further diluted at a 1:1 ratio until reaching a concentration of 0.66 ng/ml in PBS-T+0.2% BSA. […]
Finally, accelerated stability samples that had been incubated for 0, 2, 3, 4, 6 and 8 weeks at 37° C. were added to the same plate at a concentration of 40 ng/ml in PBS-T+0.2% BSA and incubated for 2 hours at RT. […] Wells were incubated 10 min with TMB substrate before stopping the reaction with 2 M H₂SO₄ after which the optical density was measured at wavelength of 450 nm. […]

Row | binding result | Binder
20 | binds | B10

Target: T1, citrullinated histone 2A-derived …
Test: CMC ELISA, biotinylated peptide on NeutrAvidin-coated plate, anti-human-HRP, OD 450 nm, interpolated on the hMQ22.101f/g calibration curve
Experimental: hMQ22.101j/e samples from week 0, 2, 4, 6 and 8, and hMQ22.101f/g samples from week 0, 3 and 6 were subjected to an in house-validated CMC ELISA. 96-well ELISA plates were coated with NeutrAvidin™ ([…]) by overnight incubation at 4° C. Wells were washed 5 times with PBS-Tween® (polysorbate) 20 (PBS-T) and blocked by a 2 hour incubation with PBS-T+1% Bovine serum albumin (BSA) at room temperature (RT). After 5 more washes with PBS-T, wells were incubated for 1 hour at RT with a histone-derived peptide (SEQ ID NO 18: SGXGKQGGKARA), containing a citrulline (X) at position 3 and a C-terminal biotin (40 ng/well) in PBS-T+0.2% BSA. After another 5 washes with PBS-T, a calibration curve made from a reference lot of hMQ22.101j/e or hMQ22.101f/g by adding to the wells starting at […] and further diluted at a 1:1 ratio until reaching a concentration of 0.66 ng/ml in PBS-T+0.2% BSA. Spiked quality control (QC) samples made from the same reference lot hMQ22.101j/e or hMQ22.101f/g at higher (HQC, 250 ng/ml), middle (MQC, 50 ng/ml), lower (LQC 3.75 ng/ml) and lower limit quality control (LLQC, 1.25 ng/ml) were diluted in PBS-T+0.2% BSA and added to the plate as well. These QC samples were used in order to validate the ELISA results.
Finally, accelerated stability samples that had been incubated for 0, 2, 3, 4, 6 and 8 weeks at 37° C. were added to the same plate at a concentration of 40 ng/ml in PBS-T+0.2% BSA and incubated for 2 hours at RT. Wells were washed 5 times with PBS-T and incubated with rabbit anti-human-HRP antibody (1:12.000 in PBS-T+0.2% BSA) for 1 hour at RT followed by 3 washes with PBS-T and 3 washes with PBS. Wells were incubated 10 min with TMB substrate before stopping the reaction with 2 M H₂SO₄ after which the optical density was measured at wavelength of 450 nm. A sigmoidal calibration curve was plotted and fitted using the values from the serial diluted reference antibody. Concentrations of the QC samples and accelerated stability samples were recalculated using the equation from the sigmoidal fitted curve.

Row | binding result | Binder
21 | binds | B11
22 | binds | B12
23 | binds | B13
24 | binds | B14
